Experiments:
[1] = target: T1, SmSpmHT (Solanum virginianum, UniProt A0A1I9J7Z8); experiment: spectrophotometric microplate assay; format: biochemical; conditions: 0.1 M Tris-HCl, 10 mM EDTA, pH 9.0, 30 °C
T1 construct: full-length ORF, 447 residues; N-terminal His-SUMO fusion from pRham N-His SUMO Kan, SUMO tag removed with SUMO Express Protease; bacterial expression
T1 sequence (A0A1I9J7Z8 1-447): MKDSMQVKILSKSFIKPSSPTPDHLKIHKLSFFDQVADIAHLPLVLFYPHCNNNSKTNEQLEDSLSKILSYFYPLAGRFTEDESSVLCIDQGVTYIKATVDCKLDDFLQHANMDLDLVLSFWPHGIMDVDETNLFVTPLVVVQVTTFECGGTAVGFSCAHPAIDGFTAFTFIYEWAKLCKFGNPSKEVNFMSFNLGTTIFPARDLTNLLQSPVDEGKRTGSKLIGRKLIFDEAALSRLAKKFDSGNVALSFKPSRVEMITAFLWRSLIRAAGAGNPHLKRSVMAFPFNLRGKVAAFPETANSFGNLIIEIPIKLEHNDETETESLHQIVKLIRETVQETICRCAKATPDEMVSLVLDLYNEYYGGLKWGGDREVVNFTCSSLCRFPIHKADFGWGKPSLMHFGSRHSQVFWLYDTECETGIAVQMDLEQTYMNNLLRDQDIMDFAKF

[2] = substrate: COc1cc(/C=C/C(=O)SCCNC(=O)CCNC(=O)[C@H](O)C(C)(C)COP(=O)(O)OP(=O)(O)OC[C@H]2O[C@@H](n3cnc4c(N)ncnc43)[C@H](O)[C@@H]2OP(=O)(O)O)ccc1O; experiment: purified protein; format: biochemical, Solanum richardii; conditions: 2.5 mM spermine, 0.1 M Tris-HCl, 10 mM EDTA, pH 9.0, 30 °C, acyl donor varied 0 to 240 μM
[3] = substrate: CC(C)(COP(=O)(O)OP(=O)(O)OC[C@H]1O[C@@H](n2cnc3c(N)ncnc32)[C@H](O)[C@@H]1OP(=O)(O)O)[C@@H](O)C(=O)NCCC(=O)NCCSC(=O)/C=C/c1ccc(O)cc1; experiment: purified protein; format: biochemical, Solanum richardii; conditions: 2.5 mM spermine, 0.1 M Tris-HCl, 10 mM EDTA, pH 9.0, 30 °C, acyl donor varied 0 to 240 μM
[4] = substrate: CC(C)(COP(=O)(O)OP(=O)(O)OC[C@H]1O[C@@H](n2cnc3c(N)ncnc32)[C@H](O)[C@@H]1OP(=O)(O)O)[C@@H](O)C(=O)NCCC(=O)NCCSC(=O)/C=C/c1ccc(O)c(O)c1; experiment: purified protein; format: biochemical, Solanum richardii; conditions: 2.5 mM spermine, 0.1 M Tris-HCl, 10 mM EDTA, pH 9.0, 30 °C, acyl donor varied 0 to 240 μM

Molecule: NCCCNCCCCNCCCN [spermine]
- spectrophotometric microplate assay ([1]; acyl acceptor, 2.5 mM, hydroxycinnamoyl-CoA donor 120 μM): The recombinant proteins showed the same substrate specificity, pH preference, and catalytic activity as SrSpmHT

Molecule: CC(C)(COP(=O)(O)OP(=O)(O)OC[C@H]1O[C@@H](n2cnc3c(N)ncnc32)[C@H](O)[C@@H]1OP(=O)(O)O)[C@@H](O)C(=O)NCCC(=O)NCCSC(=O)/C=C/c1ccc(O)c(O)c1 [caffeoyl-CoA]
- spectrophotometric microplate assay ([1]; acyl donor, 120 μM, spermine 2.5 mM): The recombinant proteins showed the same substrate specificity, pH preference, and catalytic activity as SrSpmHT

B1: SrSpmHT (Solanum richardii) (protein)
chain: MKDSMQVNILSKSFIKPSSPTPDHLKIHKLSFFDQVADIAHLPLVLFYPHCNNNSKTNEQLEDSLSKILSYFYPLAGRFTEDESSVLCIDQGVTYIKATVDCKLDDFLQHANMDLDLVLSFWPHGIMDVDETNLFVTPLVVVQVTTFECGGTAVGFSCAHPAIDGFTAFTFIYEWAKLCKFGNPSKEVNFMSFNLGTTIFPARDLTNLLQSPVDEGKRTGSKLIGRKLIFDEAALSRLAKKFDSGNVALSFKPSRVEMITAFLWRSLIRAAGAGNPHLKRSVMAFPFNLRGKVAAFPETANSFGNLIIEIPIKLEHNDETETESLHQIVKLIRETVQETICRCAKATPDEMVSLVLDLYNEYYGGLKWGGDREVVNFTCSSLCRFPIHKADFGWGKPSLMHFGSRHSQVFWLYDTECETGIAVQMDLEQTYMNNLLRDQDIIDFAKF
notes: full-length ORF, 447 residues; N-terminal His-SUMO fusion from pRham N-His SUMO Kan, SUMO tag removed with SUMO Express Protease
- Km [2]: 106.1 ± 9.0 µM
- Vmax [2]: 13.4 ± 0.48 µmol/min/mg
- kcat [2]: 13.9 ± 0.5 s⁻¹
- kcat/Km [2]: 132000 ± 6000 M⁻¹ s⁻¹
- Km [3]: 49.0 ± 1.2 µM
- Vmax [3]: 8.15 ± 0.204 µmol/min/mg
- kcat [3]: 8.5 ± 0.21 s⁻¹
- kcat/Km [3]: 173000 ± 1000 M⁻¹ s⁻¹
- Km [4]: 478.4 ± 46.5 µM
- Vmax [4]: 68.8 ± 6.08 µmol/min/mg
- kcat [4]: 71.5 ± 6.3 s⁻¹
- kcat/Km [4]: 150000 ± 1000 M⁻¹ s⁻¹

Source: PMC6580504, “A novel hydroxycinnamoyl transferase for synthesis of hydroxycinnamoyl spermine conjugates in plants” (BMC Plant Biology, 2019)
